The test system of data set [1] is ΔNPNTD (NP 25-457) (Zaire ebolavirus (EBOV)). In words: filter binding.
Data set [2] deals with the molecule itself. Nature of the data set: SEC.

From PMC4599368 (Cell reports, 2015) come the findings set out here.

On to 20 nt ssRNA, for which, in data set [1], the equilibrium dissociation constant (Kd) was 620 nM.

B1: EBOV NP residues 1–457 (NPNTD) (domain or fragment)
chain: MDSRPQKIWMAPSLTESDMDYHKILTAGLSVQQGIVRQRVIPVYQVNNLEEICQLIIQAFEAGVDFQESADSFLLMLCLHHAYQGDYKLFLESGAVKYLEGHGFRFEVKKRDGVKRLEELLPAVSSGKNIKRTLAAMPEEETTEANAGQFLSFASLFLPKLVVGEKACLEKVQRQIQVHAEQGLIQYPTAWQSVGHMMVIFRLMRTNFLIKFLLIHQGMHMVAGHDANDAVISNSVAQARFSGLLIVKTVLDHILQKTERGVRLHPLARTAKVKNEVNSFKAALSSLAKHGEYAPFARLLNLSGVNNLEHGLFPQLSAIALGVATAHGSTLAGVNVGEQYQQLREAATEAEKQLQQYAESRELDHLGLDDQEKKILMNFHQKKNEISFQQTNAMVTLRKERLAKLTEAITAASLPKTSGHYDDDDDIPFPGPINDDDNPGHQDDDPTDSQDTTIPDV
For B1, the binding result in data set [2] is on record as “binds”.
